{"source": "patent US9873883B2", "about": "“Glyphosate resistant plants and associated methods” (Dow AgroSciences LLC, priority 2012, dated 2018)", "tested_on": "C=C(OP(=O)(O)O)C(=O)O", "assay": "In vitro kinetic assay (inorganic phosphate production, malachite green)", "type": "biochemical, Mariprofundus ferrooxydans", "details": "other: pH 7.5, 1 mM S3P"}
{"substance": "Mariprofundus ferrooxydans EPSP synthase DGT-14 variant DGT-14 v6 (G101A), SEQ ID NO:1 (Mariprofundus ferrooxydans PV-1; G101A)", "values": [{"measurement": "Km", "value": 352.5, "unit": "µM"}]}
